Patent US6586946B2, “System and method for detecting and identifying molecular events in a test sample using a resonant test structure” (Signature BioScience, Inc., priority 2000, dated 2003)

B1: turkey lysozyme (protein, UniProt P00703 19-147, looked up)
Lysozyme C: KVYGRCELAAAMKRLGLDNYRGYSLGNWVCAAKFESNFNTHATNRNTDGSTDYGILQINSRWWCNDGRTPGSKNLCNIPCSALLSSDITASVNCAKKIASGGNGMNAWVAWRNRCKGTDVHAWIRGCRL
notes: test protein

Assay: Resonant frequency shift of coaxial resonator coupled to protein solution versus PBS buffer (S11 return loss)
Format: physicochemical
Details: protein solution in PTFE tube; reference PBS pH 7.4; input test signal approximately 1 GHz, 100 KHz band
Protocol: Using the systems and methods of the present invention, several experiments were performed to detect and identify molecular events in a solution. […] The vector network analyzer used was model number HP 8714 manufactured by Agilent Technologies, Inc. (Palo Alto, Calif.) The computer is an HP Vectra computer (Hewlett Packard Company, Palo Alto, Calif.) executing a graphically user interface (LabView® platform) to control the operation of the network analyzer and to display the resulting data. The coaxial resonator 122 illustrated in FIG. 3A was used in the experiments to illuminate the reference and test samples. […] The PTFE tube 470 is used to transport the reference and test samples to the detection region of the resonant test assembly and measures 0.031″ I.D., 0.063″ O.D., wall 0.016″ in cross-section dimensions.
The proteins used for the experiment included bovine serum albumin (BSA), ribonuclease (rnase), urease, myoglobin, fibrinogen (type I-S, bovine), chicken lysozyme (egg white), and turkey lysozyme. Phosphate buffer solution (PBS, pH 7.4) was purchased from Sigma (St. Louis, Mo.) and used as the reference sample.
In the reference measurement, PBS buffer was introduced into the tube and transported to the detection region, and a S11 (return loss) measurement of the resonator was taken. In the illustrated example, the measurement was taken at 1 GHz over a 100 KHz band. From the measured S11 response, the resonant frequency fres and Q-factor of the resonator were computed and stored, as described above.
Next, each of the aforementioned protein solutions were introduced into the tube and transported to the detection region. The resonator's S11 response was measured (over the same frequency range as above) and the corresponding resonant frequency fres and Q-factor parameters derived therefrom. Subsequently, the difference in the resonant frequencies Δfres is computed. This quantity was subsequently plotted versus the resonator's measured Q-factor when electromagnetically coupled to the test sample. FIG. 6 illustrates this mapping.
In the case of chicken lysozyme, the “change in resonant frequency of the resonator (relative to the PBS buffer)” value (“change … (relative to the PBS buffer)” for short) is reported as about 6.5 KHz.
With fibrinogen the “change … (relative to the PBS buffer)” value was “approximately 1.75 KHz”.
With myoglobin the “change … (relative to the PBS buffer)” value was about 4 KHz.
For urease, the “change … (relative to the PBS buffer)” value was about 2 KHz.
For B1, the “change … (relative to the PBS buffer)” value was about 6.75 KHz.
